According to IntAct's records for PubMed 11956200:

B1: Mitochondrial import inner membrane translocase subunit Tim8 A (Homo sapiens), O60220 (parent)
chain: MDSSSSSSAAGLGAVDPQLQHFIEVETQKQRFQQLVHQMTELCWEKCMDKPGPKLDSRAEACFVNCVERFIDTSQFILNRLEQTQKSKPVFSESLSD
partner: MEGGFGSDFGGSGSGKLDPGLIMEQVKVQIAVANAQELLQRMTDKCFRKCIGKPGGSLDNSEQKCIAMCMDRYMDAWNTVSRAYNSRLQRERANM

Variants of: B1
Details: with tim13_human TIMM13, Q9Y5L4

effect of a mutation on the interaction | Variant
disrupting interaction strength | MDSSSSSSAAGLGAVDPQLQHFIEVETQKQRFQQLVHQMTELCWEKCMDKPGPKLDSRAEACFVNWVERFIDTSQFILNRLEQTQKSKPVFSESLSD
